Measured values from publication PMC6906086.

Assays:
Lsr2BD WT = Lsr2BD WT (Mycobacterium tuberculosis H37Rv, UniProt P9WIP7 66-112); test: fluorescence anisotropy; pH 7.5; 4 nM DNA; conditions: protein: recombinant; tags: 6xHis; label: 5' Alexa Fluor 488; blunt
Lsr2 = Lsr2 (Mycobacterium tuberculosis H37Rv, UniProt P9WIP7 1-112); test: EMSA; 0.95-7.6 uM Lsr2; conditions: protein: recombinant; (pET15-TEV, Ni-NTA); chain copies: 2; blunt

B1: AT-rich 14-mer (dsDNA)
DNA 1: CGCGCATATATGCG
DNA 2: CGCATATATGCGCG
Lsr2BD WT
  Kd: 210 ± 60 nM

B2: leuS site (dsDNA)
DNA 1: AATTCGGCAAAATCGGTAAG
DNA 2: CTTACCGATTTTGCCGAATT
Lsr2
  binding result: binds
